Values quoted from earlier work as cited in patent US11739305B2, “Sialyltransferase variants having neosialidase activity” (The Regents of the University of California, priority 2017, dated 2023).
Like-named read-outs stand apart in the source and are kept apart here.

B1: hNEU2: human NEU2, an α2-3/6/8-sialidase (protein, UniProt Q9Y3R4 1-380, looked up)
Sialidase-2: MASLPVLQKESVFQSGAHAYRIPALLYLPGQQSLLAFAEQRASKKDEHAELIVLRRGDYDAPTHQVQWQAQEVVAQARLDGHRSMNPCPLYDAQTGTLFLFFIAIPGQVTEQQQLQTRANVTRLCQVTSTDHGRTWSSPRDLTDAAIGPAYREWSTFAVGPGHCLQLHDRARSLVVPAYAYRKLHPIQRPIPSAFCFLSHDHGRTWARGHFVAQDTLECQVAEVETGEQRVVTLNARSHLRARVQAQSTNDGLDFQESQLVKKLVEPPPQGCQGSVISFPSPRSGPGSPAQWLLYTHPTHSWQRADLGAYLNPRPPAPEAWSEPVLLAKGSCAYSDLQSMGTGPDGSPLFGCLYEANDYEEIVFLMFTLKQAFPAEYLPQ
B2: Pd2,6ST: Photobacterium damselae α2-6-sialyltransferase, wild-type enzyme (GenBank BAA25316.1, SEQ ID NO: 1) (protein, listed as Photobacterium damselae)
chain: MKKILTVLSIFILSACNSDNTSLKETVSSNSADVVETETYQLTPIDAPSSFLSHSWEQTCGTPILNESDKQAISFDFVAPELKQDEKYCFTFKGITGDHRYITNTTLTVVAPTLEVYIDHASLPSLQQLIHIIQAKDEYPSNQRFVSWKRVTVDADNANKLNIHTYPLKGNNTSPEMVAAIDEYAQSKNRLNIEFYTNTAHVFNNLPPIIQPLYNNEKVKISHISLYDDGSSEYVSLYQWKDTPNKIETLEGEVSLLANYLAGTSPDAPKGMGNRYNWHKLYDTDYYFLREDYLDVEANLHDLRDYLGSSAKQMPWDEFAKLSDSQQTLFLDIVGFDKEQLQQQYSQSPLPNFIFTGTTTWAGGETKEYYAQQQVNVINNAINETSPYYLGKDYDLFFKGHPAGGVINDIILGSFPDMINIPAKISFEVLMMTDMLPDTVAGIASSLYFTIPADKVNFIVFTSSDTITDREEALKSPLVQVMLTLGIVKEKDVLFWADHKVNSMEVAIDEACTRIIAKRQPTASDLRLVIAIIKTITDLERIGDVAESIAKVALESFSNKQYNLLVSLESLGQHTVRMLHEVLDAFARMDVKAAIEVYQEDDRIDQEYESIVRQLMAHMMEDPSSIPNVMKVMWAARSIERVGDRCQNICEYIIYFVKGKDVRHTKPDDFGTMLD

Tests used:
[1] = reported previously using Neu5Acα2-6GalβpNP as the substrate (Li, Chen, et al. Mol. BioSyst. 2011)
[2] = wild-type, reported previously (Cheng, Chen, et al. Glycobiology 2010)
[3] = CMP-Neu5Ac hydrolysis, wild-type, reported previously (McArthur, Chen, et al. Org. Biomol. Chem. 2017)

Molecule | Km [1] [mM] | kcat [1] [s⁻¹] | Km [2] [mM] | kcat [2] [s⁻¹] | Km [3] [mM] | kcat [3]
B1 | 2.1 ± 0.2 | 0.18 ± 0.01 | – | – | – | –
B2 | – | – | 7.6 ± 0.5 | 0.137 ± 0.005 | 45 ± 14 | (4.0 ± 0.9) × 10^2 min^−1
